This note sets out measurements from IntAct's records for PubMed 16362034.

To fix the notation:
B1: ETS-like protein pointed (Drosophila melanogaster (Fruit fly)), P51023 (parent)
chain: MELAICKTDLSATKFMLPPALPSSAAIGSSSAVASTASHFLDKAAHELFQLNAINGHLFKSPASSHLNSVGSPSILSQLNGIGNSGNHSGQVSTMRLKKNRKVTFLSSLVESKNIFIKEEPIHGCKDLCSLSDISDHEASLEVPTALPPLTPGTNRKVNEVLKASFASWEKEVQKCNITKDPREWTEEHVIYWLNWAKNEFSLVSMNLDPFYKMKGRAMVDLGKEKFLAITPPFTGDILWEHLDILQKDCEKPNEDIVHGNSFESATTASVCGSDHQVANYPNETHANSNNSSINSRLSMDYVTSAGNSDNKNFHRATPHSHNGYNTSNTHDRINNSTPPQQQQSQQPTVNGSGSASSNNNNSMLPPAVQQSNNENNNTSSSNTNNSSNNNNNSGGSNNSNAGSNNNNNNNNNINFMAAAAIFQHHLKEEPGTQNGNIGGYGGGSNSQNDPTDLSSYGLPAHLAAYGGGSGSGPTGGRSSGGGGDESDYHSTISAQDHQSQQSSGGNGSGGASGGSTGNSNGYLDSSSEFYGSYAGRNRFHDGYPPEFTPYDAQSFQSMGPQPTAMDQWGAAHAHQHPAAYMSTLGLDKGLLGGYTTQGGVPCFTGSGPIQLWQFLLELLLDKTCQSFISWTGDGWEFKLTDPDEVARRWGIRKNKPKMNYEKLSRGLRYYYDKNIIHKTAGKRYVYRFVCDLQNLVGHTPEELVAKYDLKIEKKDVD

In the assay the parent is B1. The note with it: with erka_drome rl.
Turning to L228R, the “effect of a mutation on the interaction” value is recorded as “decreasing interaction”.
The result for F234A reads “decreasing interaction”.
For T151A, the “effect of a mutation on the interaction” value is reported as “disrupting interaction”.
